Experimental data as given in publication PMC9482650, “Quantitative fragmentomics allow affinity mapping of interactomes” (Nature Communications, 2022).

Experiments:
Test in all cases: holdup assay
Design in all cases: key: below the threshold = too weak to quantify, mostly under pKd 3.1 to 4
AHNAK1, Q09666 = biological target: AHNAK1, Q09666
APBA2_1, Q99767 = biological target: T1, APBA2_1, Q99767
T1 sequence (Q99767 563-664, limits assumed, looked up): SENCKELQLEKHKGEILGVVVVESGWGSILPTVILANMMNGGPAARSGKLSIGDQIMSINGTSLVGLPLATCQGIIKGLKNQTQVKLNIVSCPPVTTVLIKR

APBA3_1, O96018 = biological target: T2, APBA3_1, O96018
T2 sequence (O96018 389-490, limits assumed, looked up): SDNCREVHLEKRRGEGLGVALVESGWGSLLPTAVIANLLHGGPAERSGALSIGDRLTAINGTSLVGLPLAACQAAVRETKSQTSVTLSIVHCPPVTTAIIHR

ARHGEF11, O15085 = biological target: T3, ARHGEF11, O15085
T3 sequence (O15085 42-136, limits assumed, looked up): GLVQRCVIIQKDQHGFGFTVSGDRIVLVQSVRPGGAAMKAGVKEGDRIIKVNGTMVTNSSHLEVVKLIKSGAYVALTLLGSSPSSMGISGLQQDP

DLG2_3, Q15700 = biological target: DLG2_3, Q15700
DLG3_1, Q92796 = biological target: T4, DLG3_1, Q92796
T4 sequence (Q92796 125-227, limits assumed, looked up): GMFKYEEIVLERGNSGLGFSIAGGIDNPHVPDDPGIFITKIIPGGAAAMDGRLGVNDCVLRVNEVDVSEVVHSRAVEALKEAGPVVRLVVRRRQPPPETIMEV

DLG5_1, Q8TDM6 = biological target: DLG5_1, Q8TDM6
Sequence of DLG5_1, Q8TDM6 (Q8TDM6 617-713): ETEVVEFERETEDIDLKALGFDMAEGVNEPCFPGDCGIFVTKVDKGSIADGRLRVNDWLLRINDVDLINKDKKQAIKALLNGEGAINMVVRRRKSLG

DVL3, Q92997 = biological target: T5, DVL3, Q92997
T5 sequence (Q92997 244-331, limits assumed, looked up): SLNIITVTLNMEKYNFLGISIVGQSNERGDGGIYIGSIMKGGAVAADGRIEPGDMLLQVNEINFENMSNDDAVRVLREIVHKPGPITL

FRMPD2_1, Q68DX3 = biological target: FRMPD2_1, Q68DX3
Sequence of FRMPD2_1, Q68DX3 (Q68DX3 770-861): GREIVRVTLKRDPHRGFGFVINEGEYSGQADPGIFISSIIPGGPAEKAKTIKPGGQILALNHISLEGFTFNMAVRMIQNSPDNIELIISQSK

FRMPD2_3, Q68DX3 = biological target: FRMPD2_3, Q68DX3
Sequence of FRMPD2_3, Q68DX3 (Q68DX3 1073-1166): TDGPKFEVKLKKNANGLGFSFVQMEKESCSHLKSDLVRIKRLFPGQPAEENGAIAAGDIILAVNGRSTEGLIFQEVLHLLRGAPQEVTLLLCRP

GRIP2_6, Q9C0E4 = biological target: GRIP2_6, Q9C0E4
Sequence of GRIP2_6, Q9C0E4 (Q9C0E4 648-740): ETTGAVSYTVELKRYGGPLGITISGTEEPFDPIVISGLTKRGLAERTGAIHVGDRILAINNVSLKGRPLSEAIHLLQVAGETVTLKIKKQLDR

HTRA2, O43464 = biological target: HTRA2, O43464
Sequence of HTRA2, O43464 (O43464 355-458): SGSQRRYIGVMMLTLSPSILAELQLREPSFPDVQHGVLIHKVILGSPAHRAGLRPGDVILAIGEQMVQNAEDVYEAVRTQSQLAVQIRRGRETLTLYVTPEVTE

IL16_4, Q14005 = biological target: IL16_4, Q14005
Sequence of IL16_4, Q14005 (Q14005 1229-1329): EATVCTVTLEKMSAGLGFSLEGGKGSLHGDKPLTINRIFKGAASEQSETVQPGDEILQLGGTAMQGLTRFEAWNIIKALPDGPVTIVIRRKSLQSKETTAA

LAP2, Q96RT1 = biological target: LAP2, Q96RT1
Sequence of LAP2, Q96RT1 (Q96RT1 other isoform, or with tags, fused parts or gaps): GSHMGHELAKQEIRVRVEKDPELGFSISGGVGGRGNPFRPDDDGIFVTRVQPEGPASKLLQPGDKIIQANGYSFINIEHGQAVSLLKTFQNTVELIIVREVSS

LRRC7, Q96NW7 = biological target: T6, LRRC7, Q96NW7
T6 sequence (Q96NW7 1440-1537, limits assumed, looked up): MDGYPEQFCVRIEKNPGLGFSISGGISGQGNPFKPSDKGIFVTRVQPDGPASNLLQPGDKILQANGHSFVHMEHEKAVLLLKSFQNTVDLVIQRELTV

MAGI2_6, Q86UL8 = biological target: MAGI2_6, Q86UL8
Sequence of MAGI2_6, Q86UL8 (Q86UL8 1141-1229): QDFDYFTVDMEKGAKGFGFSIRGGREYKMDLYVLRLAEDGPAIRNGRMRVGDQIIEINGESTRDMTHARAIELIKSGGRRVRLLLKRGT

MPP6, Q9NZW5 = biological target: T7, MPP6, Q9NZW5
T7 sequence (Q9NZW5 125-219, limits assumed, looked up): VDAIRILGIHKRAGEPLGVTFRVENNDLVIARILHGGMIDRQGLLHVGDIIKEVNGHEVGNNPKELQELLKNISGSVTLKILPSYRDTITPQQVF

MPP7, Q5T2T1 = biological target: T8, MPP7, Q5T2T1
T8 sequence (Q5T2T1 134-230, limits assumed, looked up): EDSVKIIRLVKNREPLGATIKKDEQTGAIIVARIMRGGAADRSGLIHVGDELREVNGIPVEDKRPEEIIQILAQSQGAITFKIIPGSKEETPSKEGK

PARD3_3, Q8TEW0 = biological target: PARD3_3, Q8TEW0
Sequence of PARD3_3, Q8TEW0 (Q8TEW0 582-685): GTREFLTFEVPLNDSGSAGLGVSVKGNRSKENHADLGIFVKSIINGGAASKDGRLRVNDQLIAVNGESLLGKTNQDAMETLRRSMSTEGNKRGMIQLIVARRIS

PDZD2_2, O15018 = biological target: T9, PDZD2_2, O15018
T9 sequence (O15018 329-429, limits assumed, looked up): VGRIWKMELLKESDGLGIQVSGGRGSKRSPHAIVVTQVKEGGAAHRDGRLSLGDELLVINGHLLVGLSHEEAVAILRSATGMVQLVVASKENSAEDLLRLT

PTPN13_1, Q12923 = biological target: T10, PTPN13_1, Q12923
T10 sequence (Q12923 1088-1188, limits assumed, looked up): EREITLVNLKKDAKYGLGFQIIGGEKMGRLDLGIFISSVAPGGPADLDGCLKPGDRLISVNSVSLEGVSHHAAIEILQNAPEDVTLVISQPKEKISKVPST

RAPGEF6, Q8TEU7 = biological target: T11, RAPGEF6, Q8TEU7
T11 sequence (Q8TEU7 525-625, limits assumed, looked up): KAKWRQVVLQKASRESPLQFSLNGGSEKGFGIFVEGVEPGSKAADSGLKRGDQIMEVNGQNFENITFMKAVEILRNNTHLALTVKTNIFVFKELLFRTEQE

SNTA1, Q13424 = biological target: T12, SNTA1, Q13424
T12 sequence (Q13424 82-180, limits assumed, looked up): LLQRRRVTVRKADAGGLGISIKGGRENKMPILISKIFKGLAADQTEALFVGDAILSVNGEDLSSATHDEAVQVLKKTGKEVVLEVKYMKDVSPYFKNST

SNTB1, Q13884 = biological target: T13, SNTB1, Q13884
T13 sequence (Q13884 107-205, limits assumed, looked up): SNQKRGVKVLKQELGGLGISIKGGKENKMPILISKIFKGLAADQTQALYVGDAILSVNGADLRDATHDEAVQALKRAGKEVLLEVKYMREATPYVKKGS

SNX27, Q96L92 = biological target: SNX27, Q96L92
[1] = plain residues with an end cap or a label only (N-terminal biotin on a linker: ahx)
[2] = plain residues with an end cap or a label only (N-terminal biotin on a linker: ado-ado)

Sequence of AHNAK1, Q09666 (Q09666 4-100): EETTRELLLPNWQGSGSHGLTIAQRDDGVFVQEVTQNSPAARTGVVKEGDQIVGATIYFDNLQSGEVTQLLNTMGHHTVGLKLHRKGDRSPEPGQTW

B1: PSCDBP, O60759 (peptide)
chain: RAVEEEESRF
AHNAK1, Q09666; [1]
  pKd: below the threshold
APBA2_1, Q99767; [1]
  pKd: below the threshold
APBA3_1, O96018; [1]
  pKd: below the threshold
ARHGEF11, O15085; [1]
  pKd: below the threshold
DLG2_3, Q15700; [1]
  pKd: below the threshold
DLG3_1, Q92796; [1]
  pKd: below the threshold
DLG5_1, Q8TDM6; [1]
  pKd: below the threshold
DVL3, Q92997; [1]
  pKd: below the threshold
FRMPD2_1, Q68DX3; [1]
  pKd: below the threshold
FRMPD2_3, Q68DX3; [1]
  pKd: below the threshold
GRIP2_6, Q9C0E4; [1]
  pKd: below the threshold
HTRA2, O43464; [1]
  pKd: below the threshold
IL16_4, Q14005; [1]
  pKd: below the threshold
LAP2, Q96RT1; [1]
  pKd: below the threshold
LRRC7, Q96NW7; [1]
  pKd: below the threshold
MAGI2_6, Q86UL8; [1]
  pKd: below the threshold
MPP6, Q9NZW5; [1]
  pKd: below the threshold
MPP7, Q5T2T1; [1]
  pKd: below the threshold
PARD3_3, Q8TEW0; [1]
  pKd: 4.09
PDZD2_2, O15018; [1]
  pKd: below the threshold
PTPN13_1, Q12923; [1]
  pKd: below the threshold
RAPGEF6, Q8TEU7; [1]
  pKd: below the threshold
SNTA1, Q13424; [1]
  pKd: below the threshold
SNTB1, Q13884; [1]
  pKd: below the threshold
SNX27, Q96L92; [1]
  pKd: 5.64

B2: PDZRN4, Q6ZMN7 (peptide)
chain: HNAFLSVTTV
AHNAK1, Q09666; [1]
  pKd: 3.7
APBA2_1, Q99767; [1]
  pKd: 3.69
APBA3_1, O96018; [1]
  pKd: below the threshold
ARHGEF11, O15085; [1]
  pKd: 3.59
DLG2_3, Q15700; [1]
  pKd: 3.53
DLG3_1, Q92796; [1]
  pKd: 3.56
DLG5_1, Q8TDM6; [1]
  pKd: below the threshold
DVL3, Q92997; [1]
  pKd: below the threshold
FRMPD2_1, Q68DX3; [1]
  pKd: below the threshold
FRMPD2_3, Q68DX3; [1]
  pKd: below the threshold
GRIP2_6, Q9C0E4; [1]
  pKd: 3.56
HTRA2, O43464; [1]
  pKd: below the threshold
IL16_4, Q14005; [1]
  pKd: 3.58
LAP2, Q96RT1; [1]
  pKd: below the threshold
LRRC7, Q96NW7; [1]
  pKd: 3.5
MAGI2_6, Q86UL8; [1]
  pKd: below the threshold
MPP6, Q9NZW5; [1]
  pKd: 3.5
MPP7, Q5T2T1; [1]
  pKd: below the threshold
PARD3_3, Q8TEW0; [1]
  pKd: 3.81
PDZD2_2, O15018; [1]
  pKd: 3.49
PTPN13_1, Q12923; [1]
  pKd: below the threshold
RAPGEF6, Q8TEU7; [1]
  pKd: below the threshold
SNTA1, Q13424; [1]
  pKd: 3.56
SNTB1, Q13884; [1]
  pKd: 3.54
SNX27, Q96L92; [1]
  pKd: 3.65

B3: HPV49-L2, P36762 (peptide)
chain: RRRKRKRTYL
AHNAK1, Q09666; [1]
  pKd: 3.56
APBA2_1, Q99767; [1]
  pKd: below the threshold
APBA3_1, O96018; [1]
  pKd: below the threshold
ARHGEF11, O15085; [1]
  pKd: 4.01
DLG2_3, Q15700; [1]
  pKd: 3.54
DLG3_1, Q92796; [1]
  pKd: below the threshold
DLG5_1, Q8TDM6; [1]
  pKd: below the threshold
DVL3, Q92997; [1]
  pKd: 3.57
FRMPD2_1, Q68DX3; [1]
  pKd: 3.78
FRMPD2_3, Q68DX3; [1]
  pKd: below the threshold
GRIP2_6, Q9C0E4; [1]
  pKd: below the threshold
HTRA2, O43464; [1]
  pKd: 3.49
IL16_4, Q14005; [1]
  pKd: below the threshold
LAP2, Q96RT1; [1]
  pKd: below the threshold
LRRC7, Q96NW7; [1]
  pKd: below the threshold
MAGI2_6, Q86UL8; [1]
  pKd: below the threshold
MPP6, Q9NZW5; [1]
  pKd: below the threshold
MPP7, Q5T2T1; [1]
  pKd: below the threshold
PARD3_3, Q8TEW0; [1]
  pKd: below the threshold
PDZD2_2, O15018; [1]
  pKd: 3.8
PTPN13_1, Q12923; [1]
  pKd: below the threshold
RAPGEF6, Q8TEU7; [1]
  pKd: below the threshold
SNTA1, Q13424; [1]
  pKd: 3.69
SNTB1, Q13884; [1]
  pKd: 3.58
SNX27, Q96L92; [1]
  pKd: below the threshold

B4: TRIM50, Q86XT4 (peptide)
chain: PLSPEQPTKL
AHNAK1, Q09666; [2]
  pKd: below the threshold
APBA2_1, Q99767; [2]
  pKd: below the threshold
APBA3_1, O96018; [2]
  pKd: below the threshold
ARHGEF11, O15085; [2]
  pKd: below the threshold
DLG2_3, Q15700; [2]
  pKd: below the threshold
DLG3_1, Q92796; [2]
  pKd: below the threshold
DLG5_1, Q8TDM6; [2]
  pKd: below the threshold
DVL3, Q92997; [2]
  pKd: below the threshold
FRMPD2_1, Q68DX3; [2]
  pKd: below the threshold
FRMPD2_3, Q68DX3; [2]
  pKd: below the threshold
GRIP2_6, Q9C0E4; [2]
  pKd: below the threshold
HTRA2, O43464; [2]
  pKd: below the threshold
IL16_4, Q14005; [2]
  pKd: below the threshold
LAP2, Q96RT1; [2]
  pKd: below the threshold
LRRC7, Q96NW7; [2]
  pKd: below the threshold
MAGI2_6, Q86UL8; [2]
  pKd: below the threshold
MPP6, Q9NZW5; [2]
  pKd: 3.63
MPP7, Q5T2T1; [2]
  pKd: below the threshold
PARD3_3, Q8TEW0; [2]
  pKd: below the threshold
PDZD2_2, O15018; [2]
  pKd: below the threshold
PTPN13_1, Q12923; [2]
  pKd: below the threshold
RAPGEF6, Q8TEU7; [2]
  pKd: below the threshold
SNTA1, Q13424; [2]
  pKd: below the threshold
SNTB1, Q13884; [2]
  pKd: below the threshold
SNX27, Q96L92; [2]
  pKd: below the threshold

B5: NHERF2, Q15599 (peptide)
chain: NRKREIFSNF
AHNAK1, Q09666; [1]
  pKd: below the threshold
APBA2_1, Q99767; [1]
  pKd: below the threshold
APBA3_1, O96018; [1]
  pKd: below the threshold
ARHGEF11, O15085; [1]
  pKd: below the threshold
DLG2_3, Q15700; [1]
  pKd: below the threshold
DLG3_1, Q92796; [1]
  pKd: below the threshold
DLG5_1, Q8TDM6; [1]
  pKd: below the threshold
DVL3, Q92997; [1]
  pKd: below the threshold
FRMPD2_1, Q68DX3; [1]
  pKd: below the threshold
FRMPD2_3, Q68DX3; [1]
  pKd: below the threshold
GRIP2_6, Q9C0E4; [1]
  pKd: below the threshold
HTRA2, O43464; [1]
  pKd: below the threshold
IL16_4, Q14005; [1]
  pKd: below the threshold
LAP2, Q96RT1; [1]
  pKd: below the threshold
LRRC7, Q96NW7; [1]
  pKd: below the threshold
MAGI2_6, Q86UL8; [1]
  pKd: 3.55
MPP6, Q9NZW5; [1]
  pKd: below the threshold
MPP7, Q5T2T1; [1]
  pKd: below the threshold
PARD3_3, Q8TEW0; [1]
  pKd: below the threshold
PDZD2_2, O15018; [1]
  pKd: below the threshold
PTPN13_1, Q12923; [1]
  pKd: below the threshold
RAPGEF6, Q8TEU7; [1]
  pKd: below the threshold
SNTA1, Q13424; [1]
  pKd: below the threshold
SNTB1, Q13884; [1]
  pKd: below the threshold
SNX27, Q96L92; [1]
  pKd: below the threshold
